Laboratory results published in patent US20160139118A1, “NOVEL ASSAY” (GLAXOSMITHKLINE INTELLECTUAL PROPERTY (NO.2) LIMITED, priority 2013, published 2016).

Experiments:
CFI = biological target: T1, CFI (Homo sapiens, UniProt P05156); assay: Effect of treating agents on CFI bioactivity in cofactor assay; format: biochemical; conditions: 1 μg/mL CFI, 10 μM BAM, 37° C. 40 min with agent; then 80 μg/mL CFH and C3b
T1 construct: purified serum CFI protein which has been successfully used in cofactor assays; purchased Complement Technology Inc (Tyler, Tex.); host or cells: human serum
T1 sequence (P05156 19-335 limits assumed): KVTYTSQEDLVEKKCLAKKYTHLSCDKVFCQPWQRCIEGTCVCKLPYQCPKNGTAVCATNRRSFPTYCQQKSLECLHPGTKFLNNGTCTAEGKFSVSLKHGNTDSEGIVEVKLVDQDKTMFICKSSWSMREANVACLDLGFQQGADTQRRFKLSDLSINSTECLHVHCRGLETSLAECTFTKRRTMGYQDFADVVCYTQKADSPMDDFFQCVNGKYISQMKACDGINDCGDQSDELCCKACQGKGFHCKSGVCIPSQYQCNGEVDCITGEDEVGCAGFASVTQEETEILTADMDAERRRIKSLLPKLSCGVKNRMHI
T1 sequence (P05156 340-583 limits assumed): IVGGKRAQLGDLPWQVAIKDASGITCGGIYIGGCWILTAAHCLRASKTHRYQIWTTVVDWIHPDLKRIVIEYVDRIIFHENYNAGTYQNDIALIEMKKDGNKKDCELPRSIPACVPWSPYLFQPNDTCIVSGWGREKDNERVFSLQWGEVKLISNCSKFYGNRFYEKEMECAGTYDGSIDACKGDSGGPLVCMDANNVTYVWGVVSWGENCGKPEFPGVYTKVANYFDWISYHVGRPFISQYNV
Protocol: (§1) FIG. 11 Effect of Tween 20, Triton X-100 and Guanidine on BAM Activity. The effect of Tween 20, Triton X-100, and Guanidine on the activity of BAM was tested in the cofactor assay, where 1 μg/mL of CFI and 10 μM BAM was incubated at 37° C. for 40 min in the presence of the treating agents, then 80 μg/mL CFH and 80 μg/mL C3b was added and the reactions were lasted for 1 hr 20 min at 37° C. The iC3b concentration in the reaction was then measured using the ELISA method.
(§2) As shown in Section 3.10, mouse isotype control IgGs, especially mIgG2b, caused significant background in terms of increasing CFI bioactivity by potential interaction with BAM at the level of the hinge. To reduce such an effect, multiple agents such as Tween 20, Triton X-100, Guanidine and human serum albumin were tested in the cofactor assays to see if they will interfere with CFI bioactivity or BAM activity first. […] However, the effect didn't seem to be differential (FIG. 11). Taken together, none of the agents tested so far could resolve the IgG BAM binding issue. Lastly, another strategy was tested by reversing the order of addition of the reagents. Normally, BAM and anti-BAM antibody were incubated first, then CFI was added to the mixture, CFH and C3b was added last. […]

BAM = biological target: T2, BAM (Homo sapiens, UniProt P05067); assay: Effect of treating agents on BAM inhibitory activity in cofactor assay; format: biochemical; conditions: 1 μg/mL CFI, 10 μM BAM, 37° C. 40 min with agent; then 80 μg/mL CFH and C3b
T2 construct: Beta amyloid recombinant peptide (1-42) (Ultra Pure, TFA Form) was purchased from Covance; purchased Covance
Protocol: as §1, §2

[1] = biological target: Complement C3b (Complement Technology) (human) (UniProt P01024); assay: cell-based or functional assay
[2] = biological target: Complement C3b (Complement Technology), P01024
C3b [3] = biological target: T3, C3b (Homo sapiens, UniProt P01024); assay: CFI dose response in cofactor assay (conversion of C3b into iC3b); format: biochemical
T3 construct: Factor I, Factor H, C3b, and iC3b proteins were purchased; purchased Complement Technology Inc (Tyler, Tex.)
Protocol: A mixture of CFH (10-80 μg/mL) and C3b (80-150 μg/mL) was added into the tubes containing the CFI or BAM/CFI mixture. After a 30 minute-incubation at 37° C., the reaction mixtures were directly diluted into Assay Buffer and used for ELISA detection of iC3b. The detailed procedures other than indicated below were performed following the instruction provided with the ELISA kit. The diluted reaction mixtures and standards were applied to the 8-well strips at 60 μL per well and incubated at RT for 30 min. After washing 5 times in a plate washer with an in house-made washing buffer (10 mM Tris, 60 mM NaCl, 0.1% Tween 20, pH7.2), the 8-well strips were loaded with 50 μL of the HRP-anti-human iC3b conjugates per well and incubated at RT for 30 min. At the end of incubation, the 8-well strips were washed in the plate washer 5 times and incubated with 100 μL of the HRP substrates provided in the kit for additional 30 min. The reaction was stopped by addition of 50 μL Stop Buffer. The absorption at 405 nm was measured within 10 minutes. […] To answer these questions, a CFI dose response study was conducted where CFI was tested in a range of 10 ng/mL to 30 μg/mL in the presence or absence of 200 μM BAM1-42 (Lot 2, aged for 7 days without sonication) in the cofactor assay. […]

C3b [4] = biological target: T3, C3b; assay: Cofactor assay of bioactivity of purified and recombinant CFI; format: biochemical; conditions: for estimated EC50 of CFI (95% limits in parentheses): three experiments in triplicate, CFH and C3b, 37° C. 1 hr
Protocol: The bioactivity measurements were conducted in triplicate and run on three occasions. Both CFI stock solutions were diluted in a 1/3 log series into 8 substock solutions starting at […] CFI. To maintain the CFI bioactivity in low concentration, 10 μg/mL CFH was used. Cofactor assays were set up by mixing […] of 2×CFI substock solutions with […] of CFH and C3b 2× mixture at a final concentration of […] for each reaction. The reaction mixtures were incubated at 37° C. for 1 hr, then the iC3b production in reactions was evaluated by a specific ELISA.
In the assay, 1 mU of CFI bioactivity is defined as the inverse of the amount of CFI that generates half of the maximal concentration of iC3b that can be produced (EC50). To obtain CFI bioactivity of a sample the following calculation is applied: 1/(EC50 of CFI in μg). This equation will result in CFI bioactivity levels expressed as U/μg of CFI. […] The model fitted to the data also predicted the EC50 recombinant to purified ratio.
This value provides the amount of CFI in ng that generates ½ the maximal amount of iC3b. Dividing these amounts by 1000 we convert the numbers to μg.

T2 sequence (P05067 672-713 limits assumed): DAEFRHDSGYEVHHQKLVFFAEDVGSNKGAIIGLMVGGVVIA

N=C(N)N [Guanidine]
effect on CFI bioactivity (in words) (CFI): significantly reduced
effect on inhibitory activity of BAM (in words) (BAM): significantly reduced

Recombinant complement factor I (GSK) (from UniProt P05156 19-583) (enzyme)
CFI bioactivity (inverse of EC50 in µg) [1]: 1640 U/µg of CFI
EC50 of CFI in cofactor assay (iC3b generation, 80 CFH and C3b, 1 hr), three experiments [1]: 0.0608 µg/mL
EC50 recombinant to purified ratio [1]: 1.8

Complement factor I, purified human serum protein (Complement Technology) (from UniProt P05156 19-583) (enzyme)
CFI bioactivity (inverse of EC50 in µg) [1]: 3070 U/µg of CFI
EC50 of CFI in cofactor assay (conversion of C3b into iC3b, with CFH), PBS control [1]: 0.686 µg/mL
EC50 of CFI in cofactor assay (iC3b generation, 80 CFH and C3b, 1 hr), three experiments [1]: 0.0326 µg/mL

Triton X-100
effect on CFI bioactivity (in words) (CFI): didn't affect CFI bioactivity
effect on inhibitory activity of BAM (in words) (BAM): abolished the inhibitory activity of BAM completely

B1: Complement factor I, purified human serum protein (Complement Technology) (protein)
chain: KVTYTSQEDLVEKKCLAKKYTHLSCDKVFCQPWQRCIEGTCVCKLPYQCPKNGTAVCATNRRSFPTYCQQKSLECLHPGTKFLNNGTCTAEGKFSVSLKHGNTDSEGIVEVKLVDQDKTMFICKSSWSMREANVACLDLGFQQGADTQRRFKLSDLSINSTECLHVHCRGLETSLAECTFTKRRTMGYQDFADVVCYTQKADSPMDDFFQCVNGKYISQMKACDGINDCGDQSDELCCKACQGKGFHCKSGVCIPSQYQCNGEVDCITGEDEVGCAGFASVTQEETEILTADMDAERRRIKSLLPKLSCGVKNRMHIRRKRIVGGKRAQLGDLPWQVAIKDASGITCGGIYIGGCWILTAAHCLRASKTHRYQIWTTVVDWIHPDLKRIVIEYVDRIIFHENYNAGTYQNDIALIEMKKDGNKKDCELPRSIPACVPWSPYLFQPNDTCIVSGWGREKDNERVFSLQWGEVKLISNCSKFYGNRFYEKEMECAGTYDGSIDACKGDSGGPLVCMDANNVTYVWGVVSWGENCGKPEFPGVYTKVANYFDWISYHVGRPFISQYNV
amount of CFI needed to cleave 50% of the available C3b (re-analysis, 4-parameter logistic) [2]: The amount of CFI needed to cleave 50% of the available C3b was approximately 632 ng/ml

B2: Mouse plasma complement factor I (protein)
chain: RSPSASDLPQEELVDQKCLLQKYTHRSCNKVFCQPWQRCIEGTCICKLPYQCPRAGTPVCAMNGRSYPTYCHQKSFECLHPEIKFSHNGTCAAEGKFNVSLIYGRTKTEGLVQVKLVDQDERMFICKNSWSMAEANVACVDLGFPLGVRDIQGSFNISGNLHINDTECLHVHCRGVETSLAECAFTKRRTELSNGLAGVVCYKQDADFPTSLSFQCVNGKHIPQEKACNGVNDCGDQSDELCCKGCRGNASLCKSGVCIPDQYKCNGEVDCITGEDESRCEEDRQQNIPKGLARSAQGEAEIETEETEMLTPGMDNERKRIKSLLPKLSCGVKRNTHTRRKRVIGGKPANVGDYPWQVAIKDGQRITCGGIYIGGCWILTAAHCVRPSRAHSYQVWTALLDWLKPNSQLGIQTVKRVIVHEKYNGATFQNDIALIEMKMHTGKKECELPNSVPACVPWSPYLFQPNDRCIISGWGRGKDNQKVYSLRWGEVDLIGNCSQFYPDRYYEKEMQCAGTRDGSIDACKGDSGGPLVCEDINNVTYVWGIVSWGENCGKPEFPGVYTRVANYFDWISYHVGRSLVSQHNV
cofactor assay with mouse plasma as source of CFI, human CFH and C3b [2]: mouse plasma CFI indeed can convert human C3b into iC3b in the presence of human CFH albeit with 10-times less activity

B3: CFI: Complement factor I protein purchased from Complement Technology Inc (protein)
chain: B1 chain
EC50 of CFI (PBS control, no BAM) (C3b [3]; CFI 10 ng/mL to 30 μg/mL, absence of BAM1-42): 0.686 µg/mL
amount of CFI needed to cleave 50% of the available C3b (C3b [3]; no BAM, reanalysis with reparametrized 4-parameter logistic equation): approximately 632 ng/ml

B4: purified CFI: CFI purified from serum (CompTech) (protein)
chain: B1 chain
estimated EC50 of CFI (95% limits in parentheses) (C3b [4]): 32.6 (9.3-108.8) ng/ml

B5: recombinant CFI: CFI generated by recombinant means (GSK) (protein)
chain: B1 chain
EC50 recombinant to purified ratio (C3b [4]; model fitted to data of three experiments, P<0.001 vs 1): 1.8 (1.5-2.2)
times lower bioactivity than material purified from serum (C3b [4]; overall result): approximately 2 times
estimated EC50 of CFI (95% limits in parentheses) (C3b [4]): 60.8 (21.6-168.0) ng/ml
